Laboratory results taken from the DeepSol protein solubility set.

Experiment: soluble on expression in E. coli; label from the status in PepcDB or PDB records

Row | Sequence | soluble on expression in E. coli
1 | AIAEALWTNKIEDPLSLMSFTVPPLRLLSAAMWQVTERRQVKHYGMLEEFVSLVTETIPELLNQHQRAQLILGLRARHLLELCRGKHQGSLKEIQPHLKRLCRPRVNKEFADEDMEESEACFLDLVRTLISNPKEKEHYFQNIFPEEYGPKFDKNLHALMEDFLLKLDRMVSVPDLSETVSWLRTCPSLLDDCIDSVSVPKDMKSLLEHHTAKGNLQDSEGNNCTFSSQSLPPLVQVVISSDHTESGEPSDLNGQDNDDEQASKTSSDGWTIKKIKLKTETEEEDNDQNWPITEAKSTGTRDGYDDGCLGEEPNQTQS | soluble
2 | AIAGELTDALLGKGALKTRFGSLLGQGDWGGVRVSQVEVRWVIFCLLHWLHVNLPVTEYLALDVLFPLAIVQKHSIL | soluble
3 | AIAKETEQVSEAPHGLEGAWLDLTNRVRVSGDTVEACSAFSIGPPRCRWLLQATDRGVNCAALDHYVPHICGTHTETVYHIAHHRYIKRAVCEIPFFRFHKARIQVCTAKIACTEQVLPSADTDYPCLEPNDLIVGPSALNRAPRYTRAQDSTIEALILIVVGPDGTSDWRDGKLDDRPPYLTPAAIESLATRYPNMRHLLTNLPSVDRRRDGGLVRSHRAFFATDFAGDGTPSESPQKTITELLRVPPDWQLYDDAEGVVCISLAPIEGLDAIPSSVYFKSH | soluble
4 | AIATSDITSGFAAVATALEHEGQLRERLRLQRDELDVAVRSLETQLSRLHYEVDWSDAVAGARQQLRTIGSGFLELQSLVPEGMFYKYNDLWRQCSIHIVQSCLLIRFFETVHAPGPQFSDNLDQSQANDSVETCTAALVTKDEVLEMLDGEKAPTQPALRLDLEEYLLGLCGGIQELARLAANRVVLGDYATPRKLAFFCNQVYAGFRLLNFRNDSLRRSYDALKYAIQRLDSILYDLRIRKLS | soluble
5 | AITGATGHLGQQIVAAMRPLVATTELYLGVHTLSKAQVYQQQGLHIAAIDYQQPEQLRAFFQDSDVLIYIPSKSHDSYSRVQEFENVLAAVQQANVHHFLVMGFIADQVNNPFALSAFYGYVPRRLAGSDINYTIVRNALYADPLVPYLPELIERHNVVYPMADQALSFISQADSAAAFAKVATTPDLLQRGRI | not soluble
6 | AIYVDLPNRQLKVKVADRRVISTTDAERQAVTPPGLQEAINDLVKKYTLARAFVRPSGTEDIVRVYAEANSQESADRLAYEVSLLVFQLAGGIGERPQP | soluble
7 | AKAAGSSIGQQDTLVMLLNFKENPNDQPITSEEAHALVFGEVNDFYQENSYGKTWLSGQVAGWYTLPVSDQVCDYPSVQAEADKMARADGIVLEDYQR | not soluble
8 | AKVNIKPLEDKILVQANEAETTTASGLVIPDTAKEKPQEGTVVAVGPGRWDEDGEKRIPLDVAEGDTVIYSKYGGTEIKYNGEEYLILSARDVLAVVSK | soluble
9 | ALSRYLLTESPAVCVLSGERGVGTTTLLNRILNKVKNATPIYINCPYDGYSALLPELAKQLGLDEESSERDILQYLRNSDTCYLLAFDSAQRLVKPKVNGLADLMKLTNLLRRARKSHRVVLAIEKSCWRFIDRARGERLLFDLVTFMP | not soluble
10 | AMAEAYQIQSNGDPQSKPLLELYVKASGIDARRIGADLFCQEFWMELYALYEIGVARVEVKTVNVNSEAFKKNFLGAQPPIMIEEEKELTYTDNREIEGRIFHLAKEFNVPLFEKDPSAEKRIENLYRNFKLFLRAKVEFDKGKKEPSRVEDLPAQIKVHYNRVCEQLSNIDQLLSERKSRYLLGNSMTEYDCELMPRLHHIRIIGLSLLGFDIPHNFTHLWAYILTAYRTAAFIESCPADQDIIHHYKEQMNLFTNQRETLQSPTKTHTIPEKVLSDIRVKGLAPDVNVH | soluble
11 | AMANIAQRPKRGPHDAAIQNILTELQNHAAAWPFLQPVNKEEVPDYYDFIKEPMDLSTMEIKLESNKYQKMEDFIYDARLVFNNCRMYNGENTSYYKYANRLEKFFNNKVKEIPEYSHLID | soluble
12 | AMSYTPGQPVTAVVQRVEIHKLRQGENLILGFSIGGGIDQDPSQNPFSEDKTDKGIYVTRVSEGGPAEIAGLQIGDKIMQVNGWDMTMVTHDQARKRLTKRSEEVVRLLVTRQ | soluble
13 | ANNLPDTQSSGPAHSKETPALTAVETGATNPLVPSDTVQTRHVIQKRTRSESTVESFFARGACVAIIEVDNDAPTKRASKLFSVWKITYKDTVQLRRKLEFFTYSRFDMEFTFVVTSNYTDANNGHALNQVYQIMYIPPGAPIPGKWNDYTWQTSSNPSVFYTYGAPPARISVPYVGIANAYSHFYDGFAKVPLAGQASTEGDSLYGAASLNDFGSLAVRVVNDHNPTKLTSKIRVYMKPKHVRVWCPRPPRAVPYYGPGVDYKDGLAPLPGKGLTTY | soluble
14 | ANQPDWADEAANGAHQDAWKSLKARVENVYYMVKATYKNDPVWGNDFTCVGVMANDVNEDEKSIQAEFLFMNNADTNMQFATEKVTAVKMYGYNRENAFRYETEDGQVFTDVIAYSDDNCDVIYVPGTDGNEEGYELWTTDYDNIPANCLNKFNEYAVGRETRDVFTSACLE | soluble
15 | AQEVLRRTPLYDFHLAHGGKMVAFAGWSLPVQYRDSHTDSHLHTRQHCSLFDVSHMLQTKILGSDRVKLMESLVVGDIAELRPNQGTLSLFTNEAGGILDDLIVTNTSEGHLYVVSNAGCWEKDLALMQDKVRELQNQGRDVGLEVLDNALLALQGPTAAQVLQAGVADDLRKLPFMTSAVMEVFGVSGCRVTRCGYTGEDGVEISVPVAGAVHLATAILKNPEVKLAGLAARDSLRLEAGLCLYGNDIDEHTTPVEGSLSWTLGKRRRAAMDFPGAKVIVPQLKGRVQRRRVGLMCEGAPMRAHSPILNMEGTKIGTVTSGCPSPSLKKNVAMGYVPCEYSRPGTMLLVEVRRKQQMAVVSKMPFVPTNYYTLK | soluble
16 | ARIMKAIFVLNAAPKDNTWYAGGKLGWSQYHDTGFYGNGFQNNNGPTRNDQLGAGAFGGYQVNPYLGFEMGYDWLGRMAYKGSVDNGAFKAQGVQLTAKLGYPITDDLDIYTRLGGMVWRADSKGNYASTGVSRSEHDTGVSPVFAGGVEWAVTRDIATRLEYQWVNNIGDAGTVGTRPDNGMLSLGVSYRFGQEDAAPVVAPAPAPAPEHHHHHH | soluble
17 | ASEKVEMNLVTSQGVGQSIGSVTITETDKGLEFSPDLKALPPGEHGFHIHAKGSCQPATKDGKASAAESAGGHLDPQNTGKHEGPEGAGHLGDLPALVVNNDGKATDAVIAPRLKSLDEIKDKALMVHVGGDNMSDQPKPLGGGGERYACGVIK | soluble
18 | ASFPFGDFTADTKGTSDIAYSFRNDISGTGGLIKKGGSQLQLHGNNTYTGKTIIEGGSLVLYGNNKSDMRVETKGALIYNGAASGGSLNSDGIVYLADTDQSGANETVHIKGSLQLDGKGTLYTRLGKLLKVDGTAIIGGKLYMSARGKGAGYLNSTGRRVPFLSAAKIGQDYSFFTNIETDGGLLASLDSVEKTAGSEGDTLSYYVRRGNAARTASAAAHSAPAGLKHAVEQGGSNLENLMVELDASESSATPETVETAAADRTDMPGIRPYGATFRAAAAVQHANAADGVRIFNS | not soluble
19 | ASTTTPTLRLNWLQPPFNNQKVRQALLHAVSQRDYMDAQVGDPKAYRVCWAMFGCDSPLASTAGVVSQDDEADLNAAKALLKESGYKNEKAVVLHATDYPPTSAIAPFTAQILRSIGMKAEVQSMDWATFLTRRGKQDPVEKGGWSVAYGSWNTLDLMSPIANLNLDGRGKEGYAGWTESAEMESLRTQYAQATEPASRQQIAAKIQQLAYDQVFYIPLGTY | not soluble
20 | ASWSHPQFEKIEGRDTWRYAFEEAMTDVQGVYAQKFKEEIEANSDHEIQLFPYGTLGESADIMEQTQDGILQFVDQSPGFTGSLIPEAQVFFVPYLLPTDQDHLARFFKESKAINDMFKPLYADQGLELLNMFPEGEVAMTTKTPVTTCSDLDEVKFRVMTNPLLVESYKAFGATPTPLPWGEVYGGLQTNVIQGQENPTFFLYSTKIYEVTDYITYAGHNNFTTAVMANKDFYDGLSAEDQQLVQNAALAAYDHTVVYQQQAADTELAKIMEAKPEMQVTVLTDEQRSCFKEAAAEVEAKFIEMTGDSGAAILKQMKADLAATAN | soluble
21 | ATDTLANEDCFRHESLVPNLDYERFRGSWIIAAGTSEALTQYKCWIDRFSYDDALVSKYTDSQGKNRTTIRGRTKFEGNKFTIDYNDKGKAFSAPYSVLATDYENYAIVEGCPAAANGHVIYVQLRMTLRRFHPKLGDKEMLQHYTLDQVNQNKKAIEEDLKHFNLKYEDLHSTCH | soluble
22 | ATLKQLDGIHVTILHKEEGAGLGFSLAGGADLENKVITVHRVFPNGLASQEGTIQKGNEVLSINGKSLKGTTHHDALAILRQAREPRQAVIVTRKLTPEAMPDLNS | soluble
23 | AVELAEEVTNLKQVRTMLEAIIQSSDEAISVVDENGIGLLINKAYTKMTGLSEKEVIGKPANTDISEGESMHLKVLETRRPVRGVRMKVGPNEKEVIVNVAPVIVDGILKGSVGVIHDVS | not soluble
24 | AVLLLGEVTNGALNRDATAKAVAAVKALGDVTVLCAGASAKAAAEEAAKIAGVAKVLVAEDALYGHRLAEPTAALIVGLAGDYSHIAAPATTDAKNVMPRVAALLDVMVLSDVSAILDADTFERPIYAGNAIQVVKSKDAKKVFTIRTASFDAAGEGGTAPVTETAAAADPGLSSWVADEVAESDRPELTSARRVVSGGRGLGSKESFAIIEELADKLGAAVGASRAAVDSGYAPNDWQVGQTGKVVAPELYVAVGISGAIQHLAGMKDSKVIVAINKDEEAPIFQIADYGLVGDLFSVVPELTGKL | soluble
25 | AVPKIRIAVPSKGRISEPAIRLLENAGVGLKDTVNRKLFSKTQHPQIEVMFSRAADIPEFVADGAADLGITGYDLIVERGSDVEILEDLKYGRASLVLAAPEDSTIRGPEDIPRGAVIATEFPGITENYLREHGIDAEVVELTGSTEIAPFIGVADLITDLSSTGTTLRMNHLRVIDTILESSVKLIANRESYATKSGIIEELRTGIRGVIDAEGKRLVMLNIDRKNLDRVRALMPGMTGPTVSEVLSDNGVVAVHAVVDEKEVFNLINRLKAVGARDILVVPIERIIP | soluble
26 | AVVATDAYVKRTNIFYHASSSRLLAVGHPYYSIKKVNKTVVPKVSGYQYRVFKVVLPDPNKFALPDSSLFDPTTQRLVWACTGLEVGRGQPLGVGVSGHPLLNKYDDVENSGGYGGNPGQDNRVNVGMDYKQTQLCMVGCAPPLGEHWGKGTQSSNTSVQNGDCPPLELITSVIQDGDMVDTGFGAMNFADLQTNKSDVPLDICGTVCKYPDYLQMAADPYGDRLFFYLRKEQMFARHFFNRAGTVGEPVPDDLLVKGGNNRSSVASSIYVHTPSGSLVSSEAQLFNKPYWLQKAQGHNNGICWGNHLSVTVVDTTRSTNMTLCASVSKSATYTNSDYKEYMRHVEEFDLQFIFQLCSITLSAEVMAYIHTMNPSVLEDWNGGSGGKQDPYKDMSFWEVNLKEKFSSELDQFPLGRKFLLQSGY | soluble
27 | AYDIISDIHGCYDEMTALIQKLGYTIKNGVPVHEEGRVLVFAGDLTDRGPKSIEVIRFVAGAYEKGAVRYVPGNHCNKLYRYLKGNPVKVMHGLETTAAELEELSKDEKKSVSEQFMKLYETAPLYDILHNGELVVAHAGIRADDIGKYTRRVKDFVLYGDVTGETYPDGRPIRRDWAAAYNGKAWVVYGHTPVKEPRKVNRTINIDTGCVFGNQLTGFRFPEIETVSVPSSLPYDESRFRP | not soluble
28 | AYMYRSAFSVGLETRVTVPNVPIRFTKIFYNQQNHYDGSTGKFYCNIPGLYYFSYHITVYMKDVKVSLFKKDKAVLFTYDQYQEKNVDQASGSVLLHLEVGDQVWLQVYGDGDHNGLYADNVNDSTFTGFLLYHDTN | soluble
